Assay results as given in patent US20180009889A1 (Novartis, published 2018).
Numbering of substitutions follows the chain as printed.

T1: Gamma secretase cleaved form of the Notch3 intracellular domain (ICD3) (human, UniProt Q9UM47 1662-2321)
T1 construct: also called Notch3 ICD
T1 sequence: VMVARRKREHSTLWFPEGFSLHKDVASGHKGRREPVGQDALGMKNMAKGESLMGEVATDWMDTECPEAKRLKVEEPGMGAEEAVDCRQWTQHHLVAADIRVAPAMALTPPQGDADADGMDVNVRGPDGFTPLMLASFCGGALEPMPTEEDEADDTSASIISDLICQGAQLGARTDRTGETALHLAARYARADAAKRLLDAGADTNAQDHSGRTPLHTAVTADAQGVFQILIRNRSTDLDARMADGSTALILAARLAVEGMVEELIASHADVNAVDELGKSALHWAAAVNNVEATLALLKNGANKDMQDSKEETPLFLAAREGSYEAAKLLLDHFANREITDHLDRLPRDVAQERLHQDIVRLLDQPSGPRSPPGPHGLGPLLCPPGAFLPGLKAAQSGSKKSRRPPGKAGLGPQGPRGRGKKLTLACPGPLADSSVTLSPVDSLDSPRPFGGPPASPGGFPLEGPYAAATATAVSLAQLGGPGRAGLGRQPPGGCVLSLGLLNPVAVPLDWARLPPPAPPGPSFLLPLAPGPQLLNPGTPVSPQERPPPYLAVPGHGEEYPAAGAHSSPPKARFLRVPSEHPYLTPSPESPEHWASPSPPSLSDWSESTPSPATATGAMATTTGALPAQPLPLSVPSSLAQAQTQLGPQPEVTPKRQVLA

T2: ICD3 of MDA-MB468 cells (frame-shift mutation at amino acid 2034, premature stop) (human)
T2 construct: also called smaller ICD3; faster migrating ICD3
T2 chain: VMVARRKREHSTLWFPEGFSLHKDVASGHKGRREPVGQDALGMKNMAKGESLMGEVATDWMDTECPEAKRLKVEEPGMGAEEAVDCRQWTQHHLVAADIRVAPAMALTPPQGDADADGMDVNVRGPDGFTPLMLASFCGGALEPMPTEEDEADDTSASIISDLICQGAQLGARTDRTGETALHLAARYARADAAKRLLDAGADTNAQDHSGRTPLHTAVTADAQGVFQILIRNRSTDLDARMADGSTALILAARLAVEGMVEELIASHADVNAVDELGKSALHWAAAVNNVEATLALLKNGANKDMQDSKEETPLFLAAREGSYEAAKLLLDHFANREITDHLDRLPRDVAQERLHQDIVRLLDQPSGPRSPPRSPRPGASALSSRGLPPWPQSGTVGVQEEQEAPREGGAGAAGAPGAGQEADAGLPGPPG

B1: 12215 (antibody, human IgG1, kappa, V domains shown)
VH: QVQLVESGGGLVKPGGSLRLSCAASGFTFSTYVMHWVRQAPGKGLEWVGRIRSNTYGGITDYAAPVKGRFTISRDDSKNTLYLQMNSLKTEDTAVYYCARAEARYRDVWGQGTLVTVSS
VL: DIQMTQSPSSLSASVGDRVTITCRASQSISSHLNWYQQKPGKAPKLLIYAASNLQSGVPSRFSGSGSGTDFTLTISSLQPEDFATYYCQQDYHTPFTFGQGTKVEIKR
notes: also called MOR 12215
B2: 12981 (antibody, human IgG1, kappa, V domains shown)
VH: QVQLVQSGAEVKKPGSSVKVSCKASGGTFRTYAMHWVRQAPGQGLEWMGGIIPIFGIANYAQKFQGRVTITADESTSTAYMELSSLRSEDTAVYYCARDDYSTYAFAYWGQGTLVTVSS
VL: B1 VL with S30A, H32Y, N34A, A50D, D91A, H93K, F96Y
notes: also called MOR 12981
B3: 20358 (antibody, human IgG1, kappa, V domains shown)
VH: B2 VH with I52V, I54Y, F55H, A58T, N59D
VL: B1 VL with S30A, H32Y, N34A, A50D, D91A, H93K, F96Y
B4: 20337 (antibody, human IgG1, kappa, V domains shown)
VH: B1 VH with S53A, T55A, I59A, T60A
VL: B1 VL
B5: 12229 (antibody, human IgG1, lambda, V domains shown)
VH: QVQLVESGGGLVKPGGSLRLSCAASGFTFSSYTMNWVRQAPGKGLEWVGRIKTKTNGGTTDYAAPVKGRFTISRDDSKNTLYLQMNSLKTEDTAVYYCARERSRAGSIFDPWGQGTLVTVSS
VL: DIVLTQPPSVSGAPGQRVTISCSGSSSNIGFNYVSWYQQLPGTAPKLLIYYNNQRPSGVPDRFSGSKSGTSASLAITGLQAEDEADYYCSTWTGTSESHVFGGGTKLTVLG
B6: 20345 (antibody, human IgG1, kappa, V domains shown)
VH: QVQLVQSGAEVKKPGSSVKVSCKASGGTFSSYTISWVRQAPGQGLEWMGWIKPKLGMAHYAQKFQGRVTITADESTSTAYMELSSLRSEDTAVYYCARGSFWFGYWGQGTLVTVSS
VL: DIQMTQSPSSLSASVGDRVTITCRASQGINNYLNWYQQKPGKAPKLLIYDASKLQSGVPSRFSGSGSGTDFTLTISSLQPEDFATYYCQQYLQYPMTFGQGTKVEIKR
B7: 12225 (antibody, human IgG1, kappa, V domains shown)
VH: B6 VH with K54A, L55F, M57T, H59N
VL: B6 VL
notes: also called MOR 12225
B8: 20350 (antibody, human IgG1, kappa, V domains shown)
VH: B6 VH with K54R, L55W, M57A
VL: B6 VL
B9: 20351 (antibody, human IgG1, kappa, V domains shown)
VH: B6 VH with K54R, L55Y, M57A, H59M
VL: B6 VL
B10: ICD3 Ab (antibody, V domains shown)
VH: QSLEESGGDLVKPGASLTLTCTASGFSFTKNAYMCWDRQAPGKRPEWIACIETGDGTTYYASWAKGRFTVSKTSSTTVTLQMTSLTAADTATYFCARELYDDYGDYFNLWGPGTLVTVSS
VL: ALVMTQTPSSVSAAVGGTVTINCQTSENFYSNDILSWYQQKPGQPPKLLIYEASTLASGVPSRFKGSGSGTQFTLTISDVQCDDAATYYCQGSVLDSGWYDISFGGGTEVVVKG
notes: also called ICD3 antibody

How the values were obtained:
[1] = target: T3, Human Notch 3 (wild type) (human, UniProt Q9UM47 40-2321); test: FACS on U2OS_N3 cells, with U2OS_parental cells as control
T3 construct: also called Notch 3 receptor

Human Notch3-Gal4-VP16 [2] = target: Human Notch3-Gal4-VP16 (human); test: cell-based or functional assay
EGF32 NRR (mouse) [3] = target: T4, EGF32 NRR (mouse) (mouse, UniProt Q61982); test: Biacore (SPR); set-up not stated on the sheet
T4 construct: recombinant, C-terminal six histidine tag

EGF32 NRR (human) [4] = test: Biacore (SPR); set-up not stated on the sheet
EGF32 NRR (cyno) [5] = target: T5, EGF32 NRR (cyno) (cynomolgus monkey); test: Biacore (SPR); set-up not stated on the sheet
T5 construct: recombinant, C-terminal six histidine tag

EGF32 NRR (mouse) [6] = target: T4, EGF32 NRR (mouse); test: ELISA: IgG titrated on directly coated recombinant antigen
EGF32 NRR (human) [7] = test: as above
EGF32 NRR (cyno) [8] = target: T5, EGF32 NRR (cyno); test: as above
EGF32 NRR (cyno) [9] = target: T5, EGF32 NRR (cyno); test: as above; remark: listed apart in the source
[10] = target: T6, Human Notch3 Negative Regulatory Region (NRR), residues 1378 to 1640 of human Notch3, with C-terminal His tag (human, UniProt Q9UM47 1378-1640); test: HDx-MS without Ca2+, IgG with Notch 3 NRR
T6 construct: also called Notch3 NRR; Notch 3 NRR
Protocol: Deuterium exchange was quenched by diluting the exchanged solution 1:1 with (6 M Urea and 1 M TCEP pH=2.5) for 5 minutes at 2° C. After quenching, the sample was injected onto the Waters UPLC system where it was digested using an immobilized pepsin column that was maintained at 12° C. After digestion, peptides were retained on a Waters UPLC HSS T3 2.1×5 mm pre-column.

Human Notch3-Gal4-VP16 [11] = target: Human Notch3-Gal4-VP16 (human); test: cell-based or functional assay; remark: listed apart in the source
[12] = target: T3, Human Notch 3 (wild type); test: FACS on U2OS_N3 cells (U2OS over-expressing human Notch3)
Human Notch3-Gal4-VP16 [13] = target: Human Notch3-Gal4-VP16 (human); test: cell-based or functional assay; remark: listed apart in the source
cyno LBD [14] = target: T7, cyno LBD; test: Biacore (SPR); set-up not stated on the sheet
T7 construct: also called N3_EGF4-11_Fc cyno

cyno LBD [15] = target: T7, cyno LBD; test: ELISA: IgG titrated on directly coated recombinant antigen
cyno LBD [16] = target: T7, cyno LBD; test: as above; remark: listed apart in the source
[17] = target: T1, Gamma secretase cleaved form of the …; test: Western blot of TALL-1 cell lysates with hybridoma sub-clone supernatant
[18] = target: T2, ICD3 of MDA-MB468 cells (frame-shift …); test: Western blot of MDA-MB468 cell lysates
Protocol: Initially these 2 cell line models were used to characterize the effects of Notch3 inhibitory antibodies on Notch3 signaling. […] Antibodies were added directly to the plate and they were further incubated for 72 hr at 37° C., 5% CO₂. […] Suspension cells were spun down and then washed in PBS.
ICD3 levels are a membrane proximal readout of Notch3 signaling activity. […] This ICD3 can be detected as a faster migrating band on a Western blot.

[19] = target: T8, Notch1 intracellular domain (ICD1) (UniProt P46531 1754-2555); test: Western blot of lysates of T-cell acute lymphoblastic leukemia cell lines
T8 construct: domain: Notch1 intracellular domain (ICD1)
T8 sequence (P46531 1754-2555 limits assumed): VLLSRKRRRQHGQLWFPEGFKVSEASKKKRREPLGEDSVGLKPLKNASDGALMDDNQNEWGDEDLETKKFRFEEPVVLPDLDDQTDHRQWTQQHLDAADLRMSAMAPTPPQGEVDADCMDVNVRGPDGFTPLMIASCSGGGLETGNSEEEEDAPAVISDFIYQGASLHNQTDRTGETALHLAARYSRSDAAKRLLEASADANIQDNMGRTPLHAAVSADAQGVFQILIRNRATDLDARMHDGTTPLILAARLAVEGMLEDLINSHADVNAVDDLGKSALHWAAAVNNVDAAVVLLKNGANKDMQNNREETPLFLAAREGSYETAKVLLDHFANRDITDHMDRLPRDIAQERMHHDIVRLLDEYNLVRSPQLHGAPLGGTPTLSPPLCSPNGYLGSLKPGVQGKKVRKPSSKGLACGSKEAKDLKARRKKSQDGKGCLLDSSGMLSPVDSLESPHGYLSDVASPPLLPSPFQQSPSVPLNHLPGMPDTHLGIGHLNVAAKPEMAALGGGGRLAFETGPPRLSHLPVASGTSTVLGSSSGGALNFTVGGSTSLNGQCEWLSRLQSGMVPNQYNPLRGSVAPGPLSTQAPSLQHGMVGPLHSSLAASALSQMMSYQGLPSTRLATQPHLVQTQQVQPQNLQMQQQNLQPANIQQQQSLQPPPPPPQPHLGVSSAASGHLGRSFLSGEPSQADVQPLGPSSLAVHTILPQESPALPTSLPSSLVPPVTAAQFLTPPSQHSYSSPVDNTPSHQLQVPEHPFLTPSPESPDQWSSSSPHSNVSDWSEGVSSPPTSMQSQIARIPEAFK
Protocol: SDS-PAGE: Samples were run under standard conditions in 1× NuPage MOPS SDS running buffer (Invitrogen, cat# NP0001) for approximately 90 min at 180 V. Before transfer to a nitrocellulose membrane (iBlot, Invitrogen), gels were soaked in 2× Transfer Buffer (Invitrogen, cat#NP0006-1) with 20% methanol. Membranes were blocked in 4% milk-TBST for one hour; supernatants from hybidoma supernatants were diluted 1:4 in 2% milk-TBST and incubated ON at 4° C. with gentle shaking. Secondary antibodies were added in 2% milk-TBST for 45 minutes, after a series of membrane washes with TBST. Membrane was developed using ECL Plus Western Detection System (GE healthcare, cat# RPN2232).

Row | Binder | % inhibition, Delta 1 co-culture Notch3 reporter gene assay (Human Notch3-Gal4-VP16 [2]) [%] | % inhibition, Jagged1 co-culture Notch3 reporter gene assay (Human Notch3-Gal4-VP16 [2]) [%] | Kd (EGF32 NRR (mouse) [3]) [nM] | Kd (EGF32 NRR (cyno) [5]) [nM] | EC50 (EGF32 NRR (cyno) [8]) [nM] | IC50, Delta 1 co-culture Notch3 reporter gene assay (Human Notch3-Gal4-VP16 [2]) [nM] | IC50, Jagged1 co-culture Notch3 reporter gene assay (Human Notch3-Gal4-VP16 [2]) [nM] | further results
1 | B1 | -1 | -5 | 1 | 2.7 | 0.6 |  |  | EC50 (read off the curve) [1]: ~0.5 nM; Kd (EGF32 NRR (human) [4]): 0.9 nM; EC50 (EGF32 NRR (mouse) [6]): 2.2 nM; EC50 (EGF32 NRR (human) [7]): 0.9 nM
2 | B2 | 16 | 56 |  | 19 | 0.4 | 22 | 0.2 | EC50 (read off the curve) (EGF32 NRR (cyno) [9]): ~0.6 nM
3 | B3 |  |  | 70 | 2.7 | 0.5 |  |  | 
4 | B4 | 18 | 60 | 4.4 | 0.4 | 0.6 | 6.4 | 4.6 | Kd (EGF32 NRR (human) [4]): 0.5 nM; binding result [10]: binds; EC50 (EGF32 NRR (mouse) [6]): 0.7 nM; EC50 (EGF32 NRR (human) [7]): 0.8 nM
5 | B5 | 85 | 77 |  |  |  | 5.5 | 0.7 | IC50 (read off the curve), Jagged1 co-culture reporter gene assay (Human Notch3-Gal4-VP16 [11]): ~0.8 nM; binding result [12]: binds; IC50 (read off the curve), Delta1 co-culture reporter gene assay (Human Notch3-Gal4-VP16 [13]): ~5 nM; Kd (cyno LBD [14]): 24 nM; EC50 (cyno LBD [15]): 0.5 nM; EC50 (read off the curve) (cyno LBD [16]): ~0.3 nM
6 | B6 | 19 | -88 |  | 0.7 | 0.6 | 0.3 | 0.4 | 
7 | B7 | -8 | -165 |  | 2.7 | 0.9 |  | 5.8 | 
8 | B8 |  |  |  | 0.3 | 1.4 |  |  | 
9 | B9 | 30 | -50 |  | 1.2 | 0.8 | 1.4 | 0.8 | 
10 | B10 |  |  |  |  |  |  |  | binding result [17]: binds; binding result [18]: binds; binding result [19]: no binding (tested: 1:5000 dilution)
